Where two headings read alike, the source gives them in different places.
Assays:
[1] = biological target: human neutrophil elastase (immobilized on Reacti-Gel agarose beads, or free) (human) (UniProt P08246); test: HNE beads, wash
[2] = biological target: human neutrophil elastase (immobilized on Reacti-Gel agarose beads, or free) (human) (UniProt P08246); test: HNE beads, pH 2.0 eluate
[3] = biological target: human neutrophil elastase (immobilized on Reacti-Gel agarose beads, or free) (human) (UniProt P08246); test: HNE beads, pH 2.5 eluate
[4] = biological target: human neutrophil elastase (immobilized on Reacti-Gel agarose beads, or free) (human) (UniProt P08246); test: HNE beads, pH 3.0 eluate
[5] = biological target: human neutrophil elastase (immobilized on Reacti-Gel agarose beads, or free) (human) (UniProt P08246); test: HNE beads, pH 3.5 eluate
[6] = biological target: human neutrophil elastase (immobilized on Reacti-Gel agarose beads, or free) (human) (UniProt P08246); test: HNE beads, pH 4.0 eluate
[7] = biological target: human neutrophil elastase (immobilized on Reacti-Gel agarose beads, or free) (human) (UniProt P08246); test: HNE beads, pH 4.5 eluate
[8] = biological target: human neutrophil elastase (immobilized on Reacti-Gel agarose beads, or free) (human) (UniProt P08246); test: HNE beads, pH 5.0 eluate
[9] = biological target: human neutrophil elastase (immobilized on Reacti-Gel agarose beads, or free) (human) (UniProt P08246); test: HNE beads, pH 5.5 eluate
[10] = biological target: human neutrophil elastase (immobilized on Reacti-Gel agarose beads, or free) (human) (UniProt P08246); test: HNE beads, pH 6.0 eluate
[11] = biological target: human neutrophil elastase (immobilized on Reacti-Gel agarose beads, or free) (human) (UniProt P08246); test: HNE beads, pH 7.0 eluate
[12] = biological target: human neutrophil elastase (immobilized on Reacti-Gel agarose beads, or free) (human) (UniProt P08246); test: HNE beads, pH 2.0 eluate; remark: listed apart in the source
[13] = biological target: human neutrophil elastase (immobilized on Reacti-Gel agarose beads, or free) (human) (UniProt P08246); test: HNE beads, pH 3.5 eluate; remark: listed apart in the source
[14] = biological target: human neutrophil elastase (immobilized on Reacti-Gel agarose beads, or free) (human) (UniProt P08246); test: HNE beads, pH 7.0 eluate; remark: listed apart in the source
[15] = biological target: human neutrophil elastase (immobilized on Reacti-Gel agarose beads, or free) (human) (UniProt P08246); test: HNE beads, pH 2.0 eluate; remark: listed apart in the source
[16] = biological target: human neutrophil elastase (immobilized on Reacti-Gel agarose beads, or free) (human) (UniProt P08246); test: HNE beads, pH 2.5 eluate; remark: listed apart in the source
[17] = biological target: human neutrophil elastase (immobilized on Reacti-Gel agarose beads, or free) (human) (UniProt P08246); test: HNE beads, pH 3.0 eluate; remark: listed apart in the source
[18] = biological target: human neutrophil elastase (immobilized on Reacti-Gel agarose beads, or free) (human) (UniProt P08246); test: HNE beads, pH 3.5 eluate; remark: listed apart in the source
[19] = biological target: human neutrophil elastase (immobilized on Reacti-Gel agarose beads, or free) (human) (UniProt P08246); test: HNE beads, pH 4.0 eluate; remark: listed apart in the source
[20] = biological target: human neutrophil elastase (immobilized on Reacti-Gel agarose beads, or free) (human) (UniProt P08246); test: HNE beads, pH 4.5 eluate; remark: listed apart in the source
[21] = biological target: human neutrophil elastase (immobilized on Reacti-Gel agarose beads, or free) (human) (UniProt P08246); test: HNE beads, pH 5.0 eluate; remark: listed apart in the source
[22] = biological target: human neutrophil elastase (immobilized on Reacti-Gel agarose beads, or free) (human) (UniProt P08246); test: HNE beads, pH 5.5 eluate; remark: listed apart in the source
[23] = biological target: human neutrophil elastase (immobilized on Reacti-Gel agarose beads, or free) (human) (UniProt P08246); test: HNE beads, pH 6.0 eluate; remark: listed apart in the source
[24] = biological target: human neutrophil elastase (immobilized on Reacti-Gel agarose beads, or free) (human) (UniProt P08246); test: HNE beads, pH 7.0 eluate; remark: listed apart in the source
[25] = biological target: human neutrophil elastase (immobilized on Reacti-Gel agarose beads, or free) (human) (UniProt P08246); test: HNE beads, all pH eluates
[26] = biological target: human neutrophil elastase (immobilized on Reacti-Gel agarose beads, or free) (human) (UniProt P08246); test: HNE beads, all pH eluates; remark: listed apart in the source
[27] = biological target: human neutrophil elastase (immobilized on Reacti-Gel agarose beads, or free) (human) (UniProt P08246); test: HNE beads, all pH eluates; remark: listed apart in the source
[28] = biological target: human neutrophil elastase (immobilized on Reacti-Gel agarose beads, or free) (human) (UniProt P08246); test: HNE beads, final TBS-TWEEN wash
[29] = biological target: human neutrophil elastase (immobilized on Reacti-Gel agarose beads, or free) (human) (UniProt P08246); test: pH elution of phage from HNE beads
[30] = biological target: human neutrophil elastase (immobilized on Reacti-Gel agarose beads, or free) (human) (UniProt P08246); test: pH elution of clonal phage from HNE beads (FIG. 9)
[31] = biological target: human neutrophil elastase (immobilized on Reacti-Gel agarose beads, or free) (human) (UniProt P08246); test: HNE beads
[32] = biological target: trypsin (active, immobilized on beads, or in solution) (UniProt P00760); test: trypsin beads
Chain of trypsin (active, immobilized on beads, or in solution) (P00760 24-246): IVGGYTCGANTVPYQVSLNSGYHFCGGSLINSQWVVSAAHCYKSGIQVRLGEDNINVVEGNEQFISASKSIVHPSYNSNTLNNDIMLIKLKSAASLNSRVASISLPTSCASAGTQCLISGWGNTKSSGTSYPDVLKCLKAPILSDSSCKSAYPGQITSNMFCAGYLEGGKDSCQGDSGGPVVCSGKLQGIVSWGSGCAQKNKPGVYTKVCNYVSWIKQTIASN

[33] = biological target: anhydro-trypsin (agarose-immobilized) (UniProt P00760); test: anhydrotrypsin beads
[34] = biological target: trypsin (active, immobilized on beads, or in solution) (UniProt P00760); test: eluted from trypsin beads
[35] = biological target: human neutrophil elastase (immobilized on Reacti-Gel agarose beads, or free) (human) (UniProt P08246); test: acid-eluted from HNE beads
[36] = biological target: trypsin (active, immobilized on beads, or in solution) (UniProt P00760); test: acid-eluted from trypsin beads
[37] = biological target: anhydro-trypsin (agarose-immobilized) (UniProt P00760); test: titer after anhydrotrypsin beads
[38] = biological target: anhydro-trypsin (agarose-immobilized) (UniProt P00760); test: eluted from anhydrotrypsin beads
[39] = biological target: protein A (agarose beads) (UniProt P38507); test: titer after protein A beads alone
[40] = biological target: anhydro-trypsin (agarose-immobilized) (UniProt P00760); test: anhydrotrypsin beads, experiment 1
[41] = biological target: anhydro-trypsin (agarose-immobilized) (UniProt P00760); test: anhydrotrypsin beads, experiment 2
[42] = biological target: anhydro-trypsin (agarose-immobilized) (UniProt P00760); test: acid-eluted from anhydrotrypsin beads, experiment 1
[43] = biological target: anhydro-trypsin (agarose-immobilized) (UniProt P00760); test: acid-eluted from anhydrotrypsin beads, experiment 2

Chain of human neutrophil elastase (immobilized on Reacti-Gel agarose beads, or free) (human) (P08246 30-247 limits assumed): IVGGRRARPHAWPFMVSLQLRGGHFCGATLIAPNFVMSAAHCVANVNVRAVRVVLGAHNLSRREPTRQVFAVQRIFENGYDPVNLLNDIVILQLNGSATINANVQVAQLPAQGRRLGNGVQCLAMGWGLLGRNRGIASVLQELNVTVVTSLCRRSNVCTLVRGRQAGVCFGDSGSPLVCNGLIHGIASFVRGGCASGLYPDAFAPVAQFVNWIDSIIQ

EpiNE7 phage (designed binder)
fraction of input [1]: 6e-05 | fraction of input [2]: 9.1e-05 | total pfu in sample [2]: 300000 pfu | fraction of input [3]: 4.8e-05 | total pfu in sample [3]: 160000 pfu | fraction of input [4]: 0.0002 | total pfu in sample [4]: 660000 pfu | fraction of input [5]: 0.00029 | total pfu in sample [5]: 950000 pfu | fraction of input [6]: 0.00048 | total pfu in sample [6]: 1.6e+06 pfu | fraction of input [7]: 0.00035 | total pfu in sample [7]: 1.2e+06 pfu | fraction of input [8]: 0.00029 | total pfu in sample [8]: 950000 pfu | fraction of input [9]: 0.00028 | total pfu in sample [9]: 940000 pfu | fraction of input [10]: 0.00041 | total pfu in sample [10]: 1.4e+06 pfu | fraction of input [11]: 0.00018 | total pfu in sample [11]: 620000 pfu | fraction of input [12]: 0.001 | fraction of input [13]: 0.003 | fraction of input [14]: 0.0003 | fraction of input [15]: 0.00016 | total pfu in sample [15]: 290000 pfu | fraction of input [16]: 0.00016 | total pfu in sample [16]: 280000 pfu | fraction of input [17]: 0.00021 | total pfu in sample [17]: 380000 pfu | fraction of input [18]: 0.00061 | total pfu in sample [18]: 1.1e+06 pfu | fraction of input [19]: 0.00094 | total pfu in sample [19]: 1.7e+06 pfu | fraction of input [20]: 0.00061 | total pfu in sample [20]: 1.1e+06 pfu | fraction of input [21]: 0.00047 | total pfu in sample [21]: 840000 pfu | fraction of input [22]: 0.00043 | total pfu in sample [22]: 780000 pfu | fraction of input [23]: 0.00036 | total pfu in sample [23]: 640000 pfu | fraction of input [24]: 0.00029 | total pfu in sample [24]: 520000 pfu | fraction of input, SUM of pH elution fractions [25]: 0.003 | total pfu, SUM of pH elution fractions [25]: 6.4e+06 pfu | fraction of input, SUM of pH elution fractions [26]: 0.0043 | fraction of input, SUM of pH elution fractions [27]: 0.0041 | total pfu, SUM of pH elution fractions [27]: 7.6e+06 pfu | fraction of input [28]: 0.00012 | total pfu in sample [28]: 380000 pfu | pH of elution peak [29]: 3.5 pH | pH of elution peak [30]: 3.5 pH

M13mp18 phage (wild type, non-display phage)
relative binding (to M13MP18) [31]: 1 fold | relative binding (to M13MP18) [32]: 1 fold | relative binding (to M13MP18) [33]: 1 fold | eluted phage, % of input [34]: 0.00023% | eluted phage, % of input [35]: 0.0003% | eluted phage, % of input [36]: 0.0005% | % of input pfu post incubation [37]: 121% | eluted phage, % of input [38]: 0.1% | % of input pfu [39]: 72% | binding relative to M13MP18 [40]: 1 fold | binding relative to M13mp18 [41]: 1 fold | eluted phage, % of input [42]: 0.2% | eluted phage, % of input [43]: 0.3%

Source: patent publication US7118879
